Results from US20240318159.

System: mND1 TALE_L-BE_41-N(G108) + TALE_R-BE_41-C(G43) split base editor (synthetic)
Assay: cell_activity
Conditions: m.2820G>A allele in mouse cells

Sequence: CATTAGTAGAACGCA (double strand) [mND1 G2820 target]
- activity: 56.4%
